Results on three substances are retold here after doi:10.1101/2022.07.14.500127.

Assay [1] concerns the target Vip3Aa protoxin (full-length vegetative insecticidal protein Vip3Aa) (Bacillus thuringiensis (Bt 9816C)). Description: SEC + other: dynamic light scattering.
Assay [2] addresses Vip3Aa Domain I-Domain III truncation variant (Bacillus thuringiensis (Bt 9816C)). Briefly: SEC + other: protein thermal shift.
Assay [3] deals with trypsin-activated DI-DIII of Vip3Aa (DI-DIII^act) (Bacillus thuringiensis (Bt 9816C)). Briefly: SEC.

As to “Vip3Aa protoxin (full-length vegetative insecticidal protein Vip3Aa) (natural protein)”, in assay [1], the stoichiometry N was found to be 4.
With “Vip3Aa Domain I-Domain III truncation variant (domain or fragment)”, the stoichiometry N in assay [2] was determined as 4.
As for “trypsin-activated DI-DIII of Vip3Aa (DI-DIII^act) (complex)”, the stoichiometry N in assay [3] turned out to be 4.

By stoichiometry N is commonly meant the number of molecules, sites or subunits per partner or assembly.
